± gives the standard deviation of the averaged measurements.
The sequences below were run on ATP (assay: switch fluorescence ratio, 500 uM ATP over buffer (Cy3 cluster intensity, sum of 5 cycles each) (fold (ratio)); higher = stronger signal-on switching upon ATP binding; sequences stand for … in TCGTCGGCAGCGTCAGATGTGTATAAGAGACAGTTTTTTTTTTTTTTTTTTTTTTTTT…TC). Settings: aptamer strand: ATP DNA aptamer (quencher-CACCTGGGGGAGTATTGCGGAGGAAGG + anchor), 100 nM annealed; ATP concentration: 500 uM.
Procedure, shortened: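 Switching-strand clusters labelled with Cy3 on a modified Illumina MiSeq flow-cell were annealed to 100 nM quencher-labelled ATP aptamer, imaged in selection buffer, and re-imaged after 15 min with 500 uM ATP at 22 °C. This was done over five cycles with NaOH stripping and re-annealing in between. The fluorescence ratio is summed target-cycle over summed buffer-cycle Cy3 intensity per cluster, averaged per switch-domain sequence, excluding clusters outside 100-1000 RFU.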
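Note: ATP exposure 15 min at 22 °C before imaging.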

| Sequence | switch fluorescence ratio |
| --- | --- |
| AGAGTCGTTT | 0.9853 ± 0.0046 |
| GGGGGGTACA | 1.01 ± 0.047 |
| TAAAGTTAAA | 1 ± 0.048 |
| TGCAAAATTG | 0.995 ± 0.024 |
| GCCTGTTTTG | 1 ± 0.046 |
| GAGGGTGTGT | 0.979 ± 0.038 |
| ATTATTGGTT | 1.02 ± 0.029 |
| CGGCAGGCAG | 1.04 ± 0.13 |
| TAATTCGGGG | 0.97 ± 0.057 |
| TTAAGTTACA | 1.05 ± 0.032 |
| TTAGGGGAAT | 1.43 ± 0.75 |
| GGTTAATTAC | 1.02 ± 0.034 |
| GGCAGGGGTG | 1.11 ± 0.015 |
| TTTAGGACAG | 1.01 ± 0.011 |
| AAGGTTTAAA | 0.982 ± 0.032 |
| GAGCCACGGG | 1.04 ± 0.015 |
| GATGTGGTCT | 1.014 ± 0.0075 |
| TTTTGAACAA | 1.02 ± 0.039 |
| TTGGGGGGGG | 1.01 ± 0.056 |
| AAGTGTGGTA | 0.991 ± 0.018 |
| TCGGGTGGTA | 1.05 ± 0.097 |
| TTTATTAATC | 0.99544 ± 0.00085 |
| TTTTTGCTCG | 1 ± 0.03 |
| AGTTGTGTTA | 1.007 ± 0.0057 |
| GAAAGGGGGT | 0.991 ± 0.027 |

| Sequence | switch fluorescence ratio |
| --- | --- |
| GGGTTTAAGG | 1.02 ± 0.015 |
| GCGTTAGGGG | 0.979 ± 0.016 |
| TTTTGCATTT | 1.04 ± 0.055 |
| ATGTAAGGGG | 0.9951 ± 0.0039 |
| AGTTGAATT | 1.03 ± 0.046 |
| ATGTTTTAAA | 0.9756 ± 0.0086 |
| CAGCTAAAGT | 1.009 ± 0.0017 |
| GCTTTGTATA | 1 ± 0.021 |
| AGATTCGTAC | 1.02 ± 0.021 |
| GTTCGGGGTA | 0.995 ± 0.031 |
| TTGCTGTTGG | 1.03 ± 0.033 |
| AGAAGATTGG | 0.9723 ± 0.0053 |
| AGATGATATA | 0.999 ± 0.013 |
| CCAGGGATCA | 1.049 ± 0.0023 |
| TCACGATTTA | 0.99 ± 0.057 |
| GTTGTATCAT | 0.98846 ± 0.00088 |
| ATACTATTGT | 1.029 ± 0.0037 |
| ATGGATAAGG | 1.01 ± 0.024 |
| TGTTTGACGT | 1.03 ± 0.014 |
| ATTGGCAATA | 2.36 ± 1.9 |
| TAAGAGTTGG | 0.999 ± 0.018 |
| TTCATTGGTA | 1.0186 ± 0.00056 |
| TTGGTAGTTG | 0.954 ± 0.011 |
| AGGATGGGGA | 0.99 ± 0.023 |
| GTATTAGGGC | 1.02 ± 0.0034 |

| Sequence | switch fluorescence ratio |
| --- | --- |
| ATGGAAAGTG | 0.9599 ± 0.0071 |
| TTTATGGGAC | 0.999 ± 0.052 |
| CTATTTCCTT | 0.975 ± 0.031 |
| AAAAAAGGTG | 1.16 ± 0.22 |
| AAAAGTGCCA | 0.999 ± 0.027 |
| GGATTGAATC | 1 ± 0.015 |
| TGTCAGAAGC | 0.994 ± 0.012 |
| GCGGAGTTGT | 1.02 ± 0.035 |
| GACGAATTGG | 0.997 ± 0.021 |
| GGGTGAGTCG | 1.02 ± 0.037 |
| GGAACGTGTT | 1.004 ± 0.0097 |
| TTTTATGGAG | 0.998 ± 0.013 |
| CGGTGCGCTG | 0.9964 ± 0.0016 |
| TTCGGGCTAG | 1.013 ± 0.0052 |
| TTATGTGCTG | 1.02 ± 0.041 |
| TGGGGGGTCA | 0.993 ± 0.02 |
| GGCCTGGCTA | 0.974 ± 0.02 |
| TATGTCGGCC | 0.975 ± 0.069 |
| CGTAATGGGA | 1.04 ± 0.025 |
| GGTATAAGGT | 1.006 ± 0.01 |
| GTGACGGGGC | 1.02 ± 0.058 |
| GACGGGGTGC | 1.3 ± 0.24 |
| GCTTAAGGGG | 0.989 ± 0.029 |
| TAATGACCTT | 1.16 ± 0.18 |
| TTAGTCATTC | 0.99 ± 0.038 |

| Sequence | switch fluorescence ratio |
| --- | --- |
| TCATTGTGGG | 0.9799 ± 0.00084 |
| AATGGTACGA | 1 ± 0.035 |
| ATGATATTAG | 1.004 ± 0.0066 |
| TTTTGAGGTA | 1.05 ± 0.023 |
| AAGGGAATGG | 1.04 ± 0.046 |
| GTGAAGGTCG | 0.927 ± 0.022 |
| GTTGGGGGAA | 0.983 ± 0.023 |
| GTGGGTAACT | 0.998 ± 0.041 |
| ACAGGAGTTC | 0.968 ± 0.053 |
| ACGCCCGGGT | 1.08 ± 0.051 |
| TGTTGTAGTG | 0.973 ± 0.017 |
| TTTTCAGATG | 1.02 ± 0.015 |
| TGGTGGGTAC | 1.03 ± 0.084 |
| AGTTCACTAT | 0.975 ± 0.011 |
| GAGGTGAACA | 1.04 ± 0.067 |
| CGGTGTAGGG | 0.99 ± 0.03 |
| CGAGAGGGAG | 1.004 ± 0.0015 |
| AAGGGGCATG | 1.001 ± 0.0025 |
| GGGGTAGTGC | 0.998 ± 0.015 |
| GGGGAATGAT | 0.98 ± 0.021 |
| CGGTTGTTGG | 0.9787 ± 0.0058 |
| TTGATTAAAT | 0.9575 ± 0.0089 |
| TGGGTGCGTC | 0.988 ± 0.014 |
| AAAAATCGT | 1.01 ± 0.014 |
| CAAGTGGTTG | 0.984 ± 0.025 |

| Sequence | switch fluorescence ratio |
| --- | --- |
| CTGTGGACCG | 0.974 ± 0.017 |
| TTGCAGGGT | 0.9804 ± 0.0019 |
| TTCCAGTAGT | 1.01 ± 0.03 |
| CCGTTGAATT | 1.008 ± 0.0056 |
| TTTTGGGAAA | 0.989 ± 0.044 |
| GCACGCCGAG | 1.01 ± 0.012 |
| GTCCGGGGGG | 1.26 ± 0.015 |
| TGGGTTTTGT | 1.01 ± 0.029 |
| GTCTCTTCAT | 0.986 ± 0.026 |
| GAGTCCACGT | 1 ± 0.034 |
| GGCGGAGGGA | 0.99 ± 0.011 |
| TGGACGAGGG | 0.992 ± 0.041 |
| TCGGCGTTGA | 0.992 ± 0.02 |
| GGGTGACTTA | 0.978 ± 0.04 |
| ATTTCACTCG | 1.01 ± 0.036 |
| ACCGCTCAGT | 1.06 ± 0.023 |
| GTTCTTGAAA | 0.977 ± 0.036 |
| GTGGGGTACT | 0.9612 ± 0.0055 |
| GAAAAAATGT | 0.967 ± 0.028 |
| GGAAATATTT | 0.98 ± 0.016 |
| GAGTAAAGGG | 0.9992 ± 0.0019 |
| TGCATTTCAG | 1 ± 0.025 |
| TCGTTTTTTT | 1.07 ± 0.13 |
| GAGGTGAGGC | 1.03 ± 0.019 |
| GTGTAGGGGT | 0.9779 ± 0.0083 |

| Sequence | switch fluorescence ratio |
| --- | --- |
| TGGGGGTATA | 1.03 ± 0.06 |
| ACACCAGCTA | 0.9876 ± 0.0061 |
| TCCTCGGGGC | 1.6 ± 0.095 |
| CTGATGTGTC | 0.996 ± 0.055 |
| TGAATTGGTC | 1.06 ± 0.16 |
| AGGGCGCTG | 0.9885 ± 0.0045 |
| GAGAGGAGAG | 0.998 ± 0.035 |
| CACCTCGGAC | 1.139 ± 0.0092 |
| GCGTTGAGGG | 0.952 ± 0.079 |
| TAATGGGATG | 0.974 ± 0.015 |
| GGAGGGTGCG | 1.011 ± 0.0064 |
| TCGCATTGAG | 1.1 ± 0.011 |
| TAGACAGCCA | 1.02 ± 0.041 |
| CCGGAAATGA | 1.02 ± 0.054 |
| TAAGTTGGTT | 1.06 ± 0.014 |
| GTCATTTTGG | 1.03 ± 0.036 |
| ATTTTTCTCA | 1.04 ± 0.062 |
| GGATTGCAAG | 0.998 ± 0.013 |
| ATTATTGTGT | 0.9903 ± 0.0075 |
| CACCAGGGCA | 1.54 ± 0.066 |
| GGCACTATAT | 1.04 ± 0.023 |
| GGGTAGTTTT | 0.989 ± 0.018 |
| CTATTCCTGT | 0.995 ± 0.014 |
| TAGGGCATAT | 1.1 ± 0.073 |
| CGGAACGTGC | 1.04 ± 0.045 |

| Sequence | switch fluorescence ratio |
| --- | --- |
| TTTGTGTAGG | 1.02 ± 0.049 |
| ACAGGGGGGT | 1.17 ± 0.24 |
| CAAAGGATGA | 0.988 ± 0.002 |
| CAGAGTAGGT | 1.02 ± 0.048 |
| TGCTTTTTTT | 0.966 ± 0.024 |
| CAAGAAAGTG | 0.9875 ± 0.0071 |
| TGAATTGTTT | 0.993 ± 0.043 |
| CTGTCAAGAT | 1.02 ± 0.024 |
| TTAGTGTTTG | 1.02 ± 0.006 |
| CGTTGCACAT | 1.07 ± 0.016 |
| TTTGGAAGGA | 0.998 ± 0.04 |
| CATCCTGAAT | 1.08 ± 0.027 |
| TGAGATTGTT | 1.01 ± 0.028 |
| AAAGAGTAGA | 1.025 ± 0.0034 |
| CGCCGGGGGA | 1.05 ± 0.036 |
| GGGATCAGCG | 0.988 ± 0.041 |
| CCGGGTTGCA | 1.03 ± 0.04 |
| CTTGGTGCTT | 0.974 ± 0.021 |
| CATTGTTAGG | 1.01 ± 0.004 |
| ACTGTAAATT | 1.086 ± 0.0031 |
| ATAGGTCAGG | 1.026 ± 0.0022 |
| GAGTAAAGCA | 1.058 ± 0.0031 |
| AGAGTGGACA | 1 ± 0.042 |
| TGGGGGCACA | 1.0343 ± 0.00026 |
| TGGTTGGGCA | 0.993 ± 0.055 |

| Sequence | switch fluorescence ratio |
| --- | --- |
| AACTAAGGGA | 0.9949 ± 0.0068 |
| ACATAGGGTA | 1.01 ± 0.013 |
| AAGGGCAGTT | 0.97609 ± 0.00084 |
| CAATGATCTT | 1.02 ± 0.014 |
| AATTAGTGTT | 0.99 ± 0.02 |
| TTAATTATTT | 0.998 ± 0.029 |
| TATGTGGCGG | 0.974 ± 0.022 |
| ACCTTTGGGC | 0.996 ± 0.039 |
| GCATGTATAT | 0.978 ± 0.045 |
| AGCGGGTGCC | 1.02 ± 0.039 |
| TGAAAGGTGG | 1.04 ± 0.018 |
| ACAGCTGATG | 0.977 ± 0.059 |
| TGTTTCCTTT | 1 ± 0.019 |
| TTGGTGTTCA | 0.996 ± 0.013 |
| AAGTATCGTT | 0.999 ± 0.011 |
| GAGAGCAGGG | 0.995 ± 0.026 |
| TATATTGGAT | 0.985 ± 0.025 |
| TTTTATTCTG | 1.01 ± 0.038 |
| TGGCCGGGGG | 1 ± 0.02 |
| ACGGTGGCGT | 1.02 ± 0.016 |
| CGCTACTATT | 1.12 ± 0.087 |
| TTCATAATA | 1.024 ± 0.0029 |
| TAGTTGTAAG | 0.994 ± 0.02 |
| ACTGTGGGGT | 0.996 ± 0.022 |
| ATCATTTATT | 1.01 ± 0.042 |

Source: the supplement of paper PMC10126150
